Measurements: paper PMC11210195
Values belong to the substance of their own block, whether it stands above or below them.

Assays:
[1] = target: TRIM21 PRYSPRY domain (human) (UniProt P19474); assay: SPR; Biacore T200, C1 chip, 25 °C, HBS-EP+; biotinylated PRYSPRY domain captured via monovalent streptavidin at low density (about 3 RU); (antibody) Fc constructs injected in five two-fold dilutions from 200 nM; global monophasic fit, affinity mode
[2] = target: mAb1 HH (human); assay: SPR; antibody Fc variants captured via anti-human Fab-kappa ligand at low density (approx. 8-10 RU); TRIM21-CC-PS injected, two-fold series from 100 nM, 180 s association, 600 s dissociation; 25°C, HBS-EP+; 1:1 fit; apparent (avidity) constants
[3] = target: mAb1 YTE (human); assay: as above
[4] = target: anti-AAV2 capsid antibody A20 WT (human); assay: SPR; A20 antibody variants and TRIM21-CC-PS; orientation not told in the text (Supplementary Figure S8); apparent (avidity) constant
[5] = target: mAb1 WT-AAA (human); assay: mass photometry; TRIM21-CC-PS incubated 10 min with antibody Fc variants at different molar ratios, low nM; PBS pH 7.4, room temperature
[6] = target: mAb1 YTE (human IgG1, M252Y, S254T, T256E) (human); assay: SPR; Biacore T200, C1 chip, 25 °C, HBS-EP+; (antibody) Fc variants captured at low density (about 8-10 RU) via anti-human Fab-kappa nanobody or anti-PGLALA F(ab')2; TRIM21-CC-PS injected 180 s in two-fold dilutions from 100, 400, 500 or 1000 nM; global 1:1 Langmuir fit; avidity (apparent) mode for symmetrical, affinity mode for asymmetrical Fc variants
[7] = target: mAb1 HH-AAA (asymmetrical human IgG1, one Fc heavy chain HH, the other AAA) (human); assay: as above
[8] = target: mAb1 HH (human IgG1, T307H, N434H) (human); assay: as above
[9] = target: mAb1 YTE-AAA (asymmetrical human IgG1, one Fc heavy chain YTE, the other AAA) (human); assay: as above
[10] = target: mAb1 WT-AAA (asymmetrical human IgG1, one Fc heavy chain H310A, H433A, Y436A) (human); assay: as above
[11] = target: anti-AAV2 capsid antibody A20 WT (bivalent, human IgG1 Fc WT) (human); assay: as above
anti-AAV2 capsid antibody A20 WT (bivalent, human IgG1 Fc WT) (human), sequence (heavy, as listed by the source, chain 1 of 2): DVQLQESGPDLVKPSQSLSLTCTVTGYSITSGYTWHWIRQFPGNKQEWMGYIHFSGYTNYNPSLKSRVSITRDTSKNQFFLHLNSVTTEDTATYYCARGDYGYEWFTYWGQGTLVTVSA
anti-AAV2 capsid antibody A20 WT (bivalent, human IgG1 Fc WT) (human), sequence (light, as listed by the source, chain 2 of 2): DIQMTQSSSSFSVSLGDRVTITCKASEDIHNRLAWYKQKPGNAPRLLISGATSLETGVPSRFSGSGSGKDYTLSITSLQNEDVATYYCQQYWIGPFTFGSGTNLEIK

TRIM21-coiled-coil-PRYSPRY (TRIM21-CC-PS), sequence (P19474 128-475): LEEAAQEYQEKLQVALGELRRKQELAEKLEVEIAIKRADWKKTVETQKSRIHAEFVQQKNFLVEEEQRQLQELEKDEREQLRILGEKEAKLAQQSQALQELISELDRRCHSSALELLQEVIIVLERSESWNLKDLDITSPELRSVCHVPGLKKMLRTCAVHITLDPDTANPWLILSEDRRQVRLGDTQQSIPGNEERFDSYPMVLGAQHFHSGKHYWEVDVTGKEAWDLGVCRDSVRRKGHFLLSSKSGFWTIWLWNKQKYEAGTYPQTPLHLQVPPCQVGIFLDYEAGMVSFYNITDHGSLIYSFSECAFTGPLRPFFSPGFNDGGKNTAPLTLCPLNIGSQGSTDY
TRIM21-coiled-coil-PRYSPRY, sequence (P19474 128-475): as above
TRIM21 PRYSPRY domain (human), sequence (P19474 277-475): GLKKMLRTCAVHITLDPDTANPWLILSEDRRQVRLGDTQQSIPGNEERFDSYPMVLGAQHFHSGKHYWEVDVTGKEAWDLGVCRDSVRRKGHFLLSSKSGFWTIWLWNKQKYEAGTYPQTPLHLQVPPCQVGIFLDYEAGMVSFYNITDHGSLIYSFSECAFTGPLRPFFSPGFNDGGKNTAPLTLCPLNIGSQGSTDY
anti-AAV2 capsid antibody A20 WT (human), sequence (heavy, as listed by the source, chain 1 of 2): as the sequence (heavy, as listed by the source, chain 1 of 2) above
anti-AAV2 capsid antibody A20 WT (human), sequence (light, as listed by the source, chain 2 of 2): as the sequence (light, as listed by the source, chain 2 of 2) above

Substance: Briakinumab (antibody)
- Kd [1]: 16.6 nM
- koff [1]: 0.102 s⁻¹
- kon [1]: 6.14e+06 M⁻¹ s⁻¹

Substance: Fc WT (Fc-only variant, human IgG1 core hinge-CH2-CH3, wild type) (domain or fragment)
- Kd [1]: 25.9 nM
- koff [1]: 0.132 s⁻¹
- kon [1]: 5.09e+06 M⁻¹ s⁻¹

Substance: TRIM21-coiled-coil-PRYSPRY (TRIM21-CC-PS) (from UniProt P19474-1 128-475) (domain or fragment)
- avidity enhancement (K (D,AFFINITY)/K (D,AVIDITY)) [2]: 72 fold
- fold faster kinetic rates against YTE [2]: 5 fold
- fold weaker against the WT avidity [2]: 2 fold
- avidity enhancement (K (D,AFFINITY)/K (D,AVIDITY)) [3]: 50 fold
- fold weaker against the WT avidity [3]: 2 fold
- Kd [4]: 0.7 nM
- percent complexed [5]: 2%

Further lines, results first:

- Kd [6]: 1.47 nM
- koff [6]: 0.00127 s⁻¹
- kon [6]: 865000 M⁻¹ s⁻¹
- Kd [7]: 474 nM
- koff [7]: 0.437 s⁻¹
- kon [7]: 921000 M⁻¹ s⁻¹
- Kd [8]: 1.37 nM
- koff [8]: 0.00651 s⁻¹
- kon [8]: 4.74e+06 M⁻¹ s⁻¹
- Kd [9]: 220 nM
- koff [9]: 0.167 s⁻¹
- kon [9]: 758000 M⁻¹ s⁻¹
- Kd [10]: 116 nM
- koff [10]: 0.129 s⁻¹
- kon [10]: 1.1e+06 M⁻¹ s⁻¹
- koff [11]: 0.000983 s⁻¹
- kon [11]: 1.44e+06 M⁻¹ s⁻¹
Substance: TRIM21-coiled-coil-PRYSPRY (from UniProt P19474-1 128-475) (domain or fragment)

- Kd [1]: 22.7 nM
- koff [1]: 0.0884 s⁻¹
- kon [1]: 3.89e+06 M⁻¹ s⁻¹
Substance: Ustekinumab (antibody)
